In one assay the target is AcrVA4. The experiment in a line: SEC-MALS. (In general: SEC sorts molecules by how far they enter the pores of the column.)
In assay [1] the target is Lachnospiraceae bacterium (ND2006) Cas12a (Lachnospiraceae bacterium (ND2006)). Briefly: SEC-MALS.

As usually defined, the stoichiometry N is the number of molecules, sites or subunits per partner or assembly.

AcrVA4 (natural protein): the stoichiometry N with AcrVA4 is 2. In assay [1], the stoichiometry N (AcrVA4 per LbCas12a-crRNA) came out at 2.

Source of the values: article PMC6449189.
